Reference: the supplement of paper PMC10567573
± gives the standard deviation.

Experiment: protein stability index of a GFP-peptide fusion (GPS, HEK-293T) (PSI 1-6); higher = more stable
[1] = treatment: DMSO, c terminus: a fixed tail appended
[2] = treatment: MLN4924 1 uM, 8 h, c terminus: a fixed tail appended
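Further: 24-mer peptide tiles fused after GFP, lentivirally expressed, FACS-sorted into six equal bins by GFP/DsRed ratio, decoded by Illumina sequencing, PSI is the read-weighted mean bin number.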

Sequence	protein stability index [1]	protein stability index [2]	protein stability index (treatment: DMSO, c terminus: native)	protein stability index (treatment: MLN4924 1 uM, 8 h, c terminus: native)
DFDYNAIDNANRILGPAYFVTYVF [PKD2L1]	2.73 ± 0.6	2.66 ± 0.59	–	–
ICPKCWTLMTMAIRIIDRALKEDF [PRIM1]	2.25 ± 0.26	2.57 ± 0.37	–	–
DRGPKGEKGEKGDRAGDASKDILL [SCARA5]	5.35 ± 0.27	4.69 ± 0.49	–	–
LELTVRRVQGVLRGRAREREQLQA [HES6]	3.7 ± 0.45	3.64 ± 0.43	–	–
KIYDSPCLPEAEAMFAINADGVGD [RAD51]	4.71 ± 0.19	4.65 ± 0.38	–	–
GSMKIKSSWDIDGRATKRRKKSGD [FBXO34]	–	4.34 ± 0.81	–	–
HTPAGAAVSAMKCGLLPISPEALS [ADD1]	3.13 ± 0.25	3.29 ± 0.32	–	–
GCSLHEEDTQRHETYHQQGQCQVL [TCAP]	4.35 ± 0.14	4.32 ± 0.41	–	–
SSMFSGSWKESSMNIIELEIPDQN [GMCL1]	3.53 ± 0.29	3.67 ± 0.5	–	–
EFAGSSPQSSKSTVVKSLIDNSSE [FAN1]	5.08 ± 0.27	5.28 ± 0.12	–	–
KSEEELAECFRIFDRNADGYIDPE [TNNC2]	4.8 ± 0.52	5.29 ± 0.43	–	–
AGSIGGLFFAVGIAQYALLGYFIR [SLC22A15]	3.35 ± 0.72	3.4 ± 0.23	–	–
HGIRPPQLEQPEKMPVLKAEASHY [RHOBTB3]	4.41 ± 0.11	4.41 ± 0.2	–	–
TDNSIKPQELLEWELVVLGKLKWN [CCND2]	2.65 ± 0.25	2.81 ± 0.33	–	–
AFMNQEITKAFHVRKANRIKECLS [RHOBTB1]	2.41 ± 0.18	2.53 ± 0.33	–	–
FEPHSGEDYSRDEDHIAHIIELLG [SRPK2]	3.3 ± 0.19	3.63 ± 0.18	–	–
FLDKSGSHGYDMSTFIRRYSRYLN [SNAP91]	2.38 ± 0.4	2.64 ± 0.49	–	–
PLPESRREIEELLAEAKYYLVQGL [KCTD10]	2.56 ± 0.2	2.77 ± 0.4	–	–
DVEDLQRDKARLLREKVEFLRSLR [NFE2L1]	3.33 ± 0.48	3.18 ± 0.34	–	–
NAGSYIPSYTSWYPSAHQEAMQQP [DLX1]	2.76 ± 0.16	2.84 ± 0.32	–	–
VATGSQQSLAQPLPGNTTEATPRS	5.42 ± 0.44	5.28 ± 0.43	–	–
EAKALLKERQKKDNHNLIERRRRF [TFE3]	4.21 ± 0.32	4.38 ± 0.2	–	–
AGLLPPVPAQKFSALTFLRVDQDK [SMOC2]	3.21 ± 0.21	3.3 ± 0.29	–	–

Sequence	protein stability index [1]	protein stability index [2]	protein stability index (treatment: DMSO, c terminus: native)	protein stability index (treatment: MLN4924 1 uM, 8 h, c terminus: native)
DVKTNVQLLKGRVDNISTLDSEIK [CD207]	3.74 ± 0.48	4.01 ± 0.3	–	–
VILIFHCEFSSERGPRMCRFIRER [CDC25B]	2.78 ± 1.1	2.64 ± 0.83	–	–
FEHEMEESKKNRVEINDLDPEVFK [SPOPL]	4.99 ± 0.39	5.02 ± 0.32	–	–
GIGGGIGGGSSRISSVLAGGSCRA [KRT16]	3.87 ± 0.23	4.05 ± 0.24	–	–
TTPLSPTRLSRLQEKEELRELNDR [LMNB1]	5.18 ± 0.39	5.1 ± 0.18	–	–
GYGGSRDSYSSSRSDLYSSGRDRV [RBMX]	3.828 ± 0.029	3.99 ± 0.37	–	–
HVMGLYPDLLPTDYRKQLQYPNPL [VPS39]	2.34 ± 0.28	2.59 ± 0.24	–	–
AILGEQRPRQRQRVYPKCTWLTTP [TCF25]	2.46 ± 0.38	2.05 ± 0.27	–	–
FGVKYNPYTRSIQILKDTKSITSA [TPH1]	2.43 ± 0.63	2.46 ± 0.11	–	–
RQKVLSLPLPDPLKYYLLYYREK [PCMTD2]	–	–	2.14 ± 0.18	2.46 ± 0.19
SPTSRPPWAVDPAFAERYAPDKTS [PDLIM7]	4.63 ± 0.21	4.7 ± 0.31	–	–
KGKLFTWNILKTIALGQMLSLCIC [SLC35F2]	2.62 ± 0.89	2.57 ± 0.57	–	–
MPDTFNSRSPSVEGSLWAVGTESQ [PXN]	4.31 ± 0.16	4.38 ± 0.12	–	–
RKLRELQLRNCLRILMGELSNHHD [BEX3]	2.38 ± 0.21	2.28 ± 0.19	–	–
ESLIVFMEQVHRGIKGLVRDSHGK [CPXM2]	2.26 ± 0.58	2.13 ± 0.76	–	–
EADASHCIQQILEAVLHCHQMGVV [CAMK2A]	3.3 ± 0.15	2.86 ± 0.71	–	–
RAIPELTKLLNDEDQVVVNKAAVM [CTNNB1]	3.91 ± 0.16	3.89 ± 0.21	–	–
ARLFDEPQLASLCLDTIDKSTMDA [BTBD1]	4.35 ± 0.43	4.53 ± 0.17	–	–
HFHRTLKEACDQHGPDLYPKFKKW [CPOX]	2.49 ± 0.21	2.75 ± 0.14	–	–
TLIREKSFGACLREETPRMPSWAS [ELOA2]	2.14 ± 0.13	2.67 ± 0.71	–	–
EQPITDFCSVIRINSTAPFEEQEN [ZNF277]	4.4 ± 0.23	4.46 ± 0.3	–	–
FRIYKSVIQAVQKSEEGHPFKAYL [RTN3]	2.4 ± 0.23	2.29 ± 0.21	–	–
ECLKRQGQREPGSLSRNNSFRRNV [FBXO34]	4.11 ± 0.26	4.22 ± 0.18	–	–

Sequence	protein stability index [1]	protein stability index [2]	protein stability index (treatment: DMSO, c terminus: native)	protein stability index (treatment: MLN4924 1 uM, 8 h, c terminus: native)
IEKTGGVEAVKNELRRQAPPPPPP [WASL]	4.492 ± 0.027	4.46 ± 0.58	–	–
PNRQLWIELAPLSMPRINHGVLSA [GAN]	2.17 ± 0.47	2.19 ± 0.13	–	–
LWFYNTSLKFFLNKPMLADVVFEI [RHOBTB3]	2.82 ± 0.32	3.04 ± 1.1	–	–
VFCPLDPPPPYEAVVSQMDQEQGS [FAM189A2]	4.65 ± 0.13	4.76 ± 0.2	–	–
DSDNSGGGGGGGGGGGGGGGTSSN [ANKRD17]	5.39 ± 0.31	5.58 ± 0.22	–	–
HGFLFMIFQIGVLGFGPTYVVLAY [SOAT1]	2.86 ± 0.85	2.71 ± 0.8	–	–
QIMFDVEMHTSRDHSSQSEEEVVE [BNIP3L]	5.33 ± 0.063	5.37 ± 0.22	–	–
WAAPRVGPLPPAPAMVRISKPKTF [YPEL3]	3.15 ± 0.43	3.25 ± 0.18	–	–
GGYETFYSEYPECCVDVKPISQEK [DUSP5]	4.25 ± 0.29	4.22 ± 0.18	–	–
RSLSACNKRVGMYLEGFDPFNQST [DLC1]	2.85 ± 0.39	2.81 ± 0.5	–	–
EAQHGPHSAVARISRAQYNALTLT [STX11]	3.32 ± 0.11	3.47 ± 0.31	–	–
PSMVSGGYVANSSNCISGVCSVRG [KRT71]	3.35 ± 0.082	3.4 ± 0.23	–	–
VKEISDKISKEEMVRRLKMVVKTF [PDS5B]	–	2.24 ± 0.91	–	–
INGLQAWLLTHLLWFANAHLLSWF [DHCR7]	3.18 ± 0.3	3.07 ± 0.44	–	–
DAASVYTLPAGADFLMCYSVAEGY [CASP6]	2.34 ± 0.22	2.33 ± 0.25	–	–
LRGQVGGEINVEMDAAPGVDLSRI [KRT17]	3.97 ± 0.15	3.92 ± 0.16	–	–
LAMLALLSPLSLAQYDSWPHYPEY [LOXL2]	3.22 ± 0.32	3.46 ± 0.16	–	–
QLFTEYGRLAMDEIFQKPFQTLMF [ATL3]	2.33 ± 0.49	2.35 ± 0.47	–	–
DLLLWIQKHTEVETVDLVLKLKNK [DENND6A]	2.57 ± 0.63	2.21 ± 0.45	–	–
SLKFFLNKPMLADVVFEIQGTTVP [RHOBTB3]	2.68 ± 0.39	2.29 ± 0.37	–	–
MFSVLSYGRLVARAVLGGLSQTDP [PPTC7]	2.01 ± 0.74	2.85 ± 1.3	–	–
DSTNVEAAFQTILTEIYRIVSQKQ [RAB11A]	2.26 ± 0.35	2.46 ± 0.034	–	–
GPVRSSSGMGGRAPVSRGRDSYGG [RBMX]	4.32 ± 0.12	4.53 ± 0.17	–	–

Sequence	protein stability index [1]	protein stability index [2]	protein stability index (treatment: DMSO, c terminus: native)	protein stability index (treatment: MLN4924 1 uM, 8 h, c terminus: native)
EAITDEERAPTATFHDSKHNIVHV [WDFY2]	4.72 ± 0.13	4.63 ± 0.3	–	–
VACSETAPDLVLNAEMVQQTTYLE [LOXL2]	4.41 ± 0.53	4.5 ± 0.25	–	–
LCVILYKKVHKGTVPKNDADDESE [GLT8D2]	2.02 ± 0.15	2.31 ± 0.1	–	–
HESFFSLFSDPRSTRLTRIHLRED [ZER1]	3.04 ± 0.26	3.14 ± 0.11	–	–
PFWEVLVRSTETVERDNMEEDNVE [HDAC6]	5.27 ± 0.086	5.27 ± 0.13	–	–
TEISFILGQEFDEVTADDRKVKST [FABP4]	4.24 ± 0.43	4.43 ± 0.17	–	–
LMYPSYTFSGDVQLAQDDIDGIQA [MMP1]	4.1 ± 0.15	4.25 ± 0.25	–	–
ENIQDITVNIHRLHVKRSMGWKKA [ZMYND11]	2.98 ± 0.26	3.22 ± 0.49	–	–
ISKNKKKASNSIISCFNNAPPAKL [FAN1]	3.36 ± 0.21	2.79 ± 0.31	–	–
LINTIRVVCASYEDYGHWLLCLRA [PLEKHN1]	2.76 ± 0.89	2.43 ± 0.41	–	–
LRDRAERIASRAIDNAADLLIFGK [SNX8]	3.28 ± 0.17	3.6 ± 0.31	–	–
EGSIWRGAQMEKEWARALETRDWG [ZSWIM9]	3.37 ± 0.3	3.42 ± 0.21	–	–
SMEKDATLNVDRKEKCVSLPDCCH [DLC1]	4.81 ± 0.2	4.92 ± 0.17	–	–
FSDLQVYSYRRLGEEALSLQALDP [SLC22A15]	2.73 ± 0.34	2.84 ± 0.31	–	–
KAGQPESRALALFDIQKIMQEKNP [ZNF8]	4.06 ± 0.36	4.26 ± 0.12	–	–
TMARALGRFKLSIPHTHLLATLDP [WDR88]	2.19 ± 0.27	2.21 ± 0.18	–	–
SIPRHFALSGKYSREFFNRRGELR [SRPK2]	2.74 ± 0.46	2.8 ± 0.46	–	–
NVKSEKVYTRHGVPISVTGIAQVK [FLOT1]	3.52 ± 0.13	3.65 ± 0.2	–	–
GLSGSGVAFVCAFSEALAEGAVKM [PYCR3]	2.58 ± 0.65	2.25 ± 0.34	–	–
MLFFLPPGQHLSDYSQLNESTTKE [FBXO34]	2.6 ± 0.25	2.61 ± 0.24	–	–
